The results in this text go back to patent US20250368734A1 (ANTENGENE BIOLOGICS, published 2025).

First the molecules themselves.
B1: Bis-15D6G2 (bispecific antibody)
chain 1: EVQLVESGGDLVKPGGYLRLSCAASGFTFSSHGMSWVRQTPDKRLEWVATISSGGRNTYYPDSVKGRFTISRDNAKNILYLQMSSLKSEDTAMFYCTRHSGDAMDYWGQGTSVTVSS
chain 2: GGGGSGGGGSGGGGSEVQLVESGGGLVQPGRSLRLSCAASGFTFDNYAMHWVRQAPGKGLEWVSGISWNSGSIGYADSVKGRFTISRDNAKNSLYLQMNSLRAEDTALYYCAKDSRGYGDYSRGGAYWGQGTLVTVSSEIVMTQSPATLSVSPGERATLSCRASQSVSSNLAWYQQKPGQAPRLLIYGASTRATGIPARFSGSGSGTEFTLTISSLQSEDFAVYYCQQYNNWPWTFGQGTKVEIK
chain 3: DILLTQSPAILSVSPGERVSFSCRASQSIGTNIHWYQQRTNGSPRLLIKYASESISGIPSRFSGSGSGTDFTLSINSVESEDIADYYCQQSKSWPTFGGGTKLEIK
B2: Bis-110B4H5 (bispecific antibody)
chain 1: EVQLQQSGPELVKPGASVKMSCKASGYTFTFYIMHWVKQKPGQGPEWIGYINPYNDGTKYNAKFKGKATLSSDRSSSTAYMELSSLTSEDSAVYYCARGGVRRYFDVWGAGTPVTVSS
chain 2: GGGGSGGGGSGGGGSEVQLVESGGGLVQPGRSLRLSCAASGFTFDNYAMHWVRQAPGKGLEWVSGISWNSGSIGYADSVKGRFTISRDNAKNSLYLQMNSLRAEDTALYYCAKDSRGYGDYSRGGAYWGQGTLVTVSSEIVMTQSPATLSVSPGERATLSCRASQSVSSNLAWYQQKPGQAPRLLIYGASTRATGIPARFSGSGSGTEFTLTISSLQSEDFAVYYCQQYNNWPWTFGQGTKVEIK
chain 3: DIQMTQSPSSLSASLGERVSLTCRSSQDIGSNLNWLQQEPDGTIKRLIYATFSLDSGVPKRFSGSRSGSHYSLTISSLESEDFVVYYCLQYGSFPYTFGGGTKLEIK
B3: Bis-98A3A8 (bispecific antibody)
chain 1: EVQLQQSGPELVKPGASVKMSCKASGYTFTYYVTHWVRQKPGQGLEWIGYINPYNDGTMFNEKFKGKATLTSDKSSSTAYMEFSSLTSEDSAVFYCARGGVRRYFDVWGAGTTVTVSS
chain 2: GGGGSGGGGSGGGGSEVQLVESGGGLVQPGRSLRLSCAASGFTFDNYAMHWVRQAPGKGLEWVSGISWNSGSIGYADSVKGRFTISRDNAKNSLYLQMNSLRAEDTALYYCAKDSRGYGDYSRGGAYWGQGTLVTVSSEIVMTQSPATLSVSPGERATLSCRASQSVSSNLAWYQQKPGQAPRLLIYGASTRATGIPARFSGSGSGTEFTLTISSLQSEDFAVYYCQQYNNWPWTFGQGTKVEIK
chain 3: DIQMTQSPSSLSASLGERVSLTCRASQDIGSNLNWLQQKPDGTIKRLIYATSSLDSGVPKRFSGSRSGSDYSLTINSLESEDFVDYYCLQYASFPYTFGGGTKLEIK
B4: Bis-96C9E7 (bispecific antibody)
chain 1: EVQLQQSGPELVKPGASVKMSCKASGYTFTYYILHWVKQKPGQGLEWIGYFNPYNDGNKFNERFRGKATLTSDKSSSTAYMELNSLTSEDSAVYFCARGGVRRYFDVWGAGTTVTVSS
chain 2: GGGGSGGGGSGGGGSEVQLVESGGGLVQPGRSLRLSCAASGFTFDNYAMHWVRQAPGKGLEWVSGISWNSGSIGYADSVKGRFTISRDNAKNSLYLQMNSLRAEDTALYYCAKDSRGYGDYSRGGAYWGQGTLVTVSSEIVMTQSPATLSVSPGERATLSCRASQSVSSNLAWYQQKPGQAPRLLIYGASTRATGIPARFSGSGSGTEFTLTISSLQSEDFAVYYCQQYNNWPWTFGQGTKVEIK
chain 3: DIQMTQSPSSLSASLGERVSLTCRASQDIGSNLNWLQQEPDGTIKRLISATFSLDSGVPKRFSGSRSGSDYSLTISSLESEDFVNYYCLQYASFPYTFGGGTKLEIK

Sequence of human GPRC5D (Q9NZD1 whole entry): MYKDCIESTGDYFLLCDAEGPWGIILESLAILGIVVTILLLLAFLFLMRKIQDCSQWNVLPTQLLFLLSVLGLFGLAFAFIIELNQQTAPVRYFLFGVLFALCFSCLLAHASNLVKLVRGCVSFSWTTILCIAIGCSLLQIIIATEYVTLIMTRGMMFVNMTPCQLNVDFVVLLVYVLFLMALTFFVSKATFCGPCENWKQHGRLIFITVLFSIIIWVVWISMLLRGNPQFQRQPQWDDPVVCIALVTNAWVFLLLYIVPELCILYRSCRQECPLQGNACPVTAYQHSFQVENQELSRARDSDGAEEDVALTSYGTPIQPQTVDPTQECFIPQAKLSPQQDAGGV

This experiment concerns the target human GPRC5D (human, UniProt Q9NZD1 1-345). As to the kind of experiment: cell-based or functional assay.
As a reminder, the EC50 is the concentration at which the effect is half-maximal. On to B1, for which the “EC50” value stood at 6.69 nM and the Top killing % was found to be 45.9%.

For B2, the “EC50” value worked out at 3.62 nM and the Top killing % was found to be 61.5%.

Turning to B3, the “EC50” value is 2.95 nM and the Top killing % is 64.4%.

Turning to B4, the “EC50” value stood at 2.34 nM and the Top killing % worked out at 66.2%.
